Tests used:
[1] = substrate: N[C@@H](CCC(=O)O)C(=O)O; test: glutamate decarboxylation assay, Michaelis-Menten fit; type: biochemical, Levilactobacillus brevis; conditions: pH 4.8, 45 °C, sulfate buffer (0.8 M sodium sulfate, 50 mM sodium acetate), PLP, glutamate 0.9-36 mM
Text: glutamate decarboxylation assay, Michaelis-Menten fit on Lb. brevis GadA (WT)

[2] = substrate: N[C@@H](CCC(=O)O)C(=O)O; test: as above; type: biochemical, Lactiplantibacillus plantarum; conditions: pH 4.8, 60 °C, McIlvaine (citrate-phosphate) buffer, PLP, glutamate 0.9-36 mM
Text: glutamate decarboxylation assay, Michaelis-Menten fit on Lb. plantarum GadB

B1: Lb. brevis GadA (WT) (Levilactobacillus brevis ATCC 367) (protein)
chain: MNKNDQETQQMINNVDLEKTFLGSVEAGQSLPTNTLPDDPMAPDVAAQLVEHYRLNEAKANQNLATFCTTQMEPQADELMKNALNTNAIDKSEYPKTAAMENYCVSMIAHLWGIPDNEKIYDDFIGTSTVGSSEGCMLGGLALLHSWKHRAKAAGFDIEDLHSHKPNLVIMSGYQVVWEKFCTYWNVEMRQVPINGDQVSLDMDHVMDYVDENTIGIIGIEGITYTGSVDDIQTLDNLVTEYNKTATMPVRIHVDAAFGGLFAPFVDGFNPWDFRLKNVVSINVSGHKYGMVYPGLGWIVWRHNTADILPAEMRFQVPYLGKTVDSIAINFSHSGAHISAQYYNFIRFGLSGYKTIMQNVRKVSLKLTAALKTYGIFDILVDGSQLPINCWKLADDAPVGWTLYDLESELAKYGWQVPAYPLPKNRDDVTISRIVVRPSMTMTIADDFLDDLKLAIDGLNHTFGVTTTVDQDNKTTVRS
notes: recombinant in E. coli from pRSETA-SUMO with N-terminal His-SUMO tag (tag removal told only in supplement); native N-terminus MNKNDQET (from primer); tetramer per cited work
With B1 the Km [1] was 26.95 ± 2.437 mM, the Vmax [1] was 9.16 µmol/min/mg and the kcat [1] was 8.17 ± 0.405 s⁻¹. The kcat/Km [1] was 303 M⁻¹ s⁻¹.

B2: Lb. plantarum GadB (Lactiplantibacillus plantarum WCFS1) (protein)
chain: MAMLYGKHNHEAEEYLEPVFGAPSEQHDLPKYRLPKHSLSPREADRLVRDELLDEGNSRLNLATFCQTYMEPEAVELMKDTLAKNAIDKSEYPRTAEIENRCVNIIANLWHAPDDEHFTGTSTIGSSEACMLGGLAMKFAWRKRAQAAGLDLNAHRPNLVISAGYQVCWEKFCVYWDVDMHVVPMDEQHMALDVNHVLDYVDEYTIGIVGIMGITYTGQYDDLAALDKVVTHYNHQHPKLPVYIHVDAASGGFYTPFIEPQLIWDFRLANVVSINASGHKYGLVYPGVGWVVWRDRQFLPPELVFKVSYLGGELPTMAINFSHSAAQLIGQYYNFIRFGMDGYREIQTKTHDVARYLAAALDKVGEFKMINNGHQLPLICYQLASREDREWTLYDLSDRLLMNGWQVPTYPLPANLEQQVIQRIVVRADFGMNMAHDFMDDLTKAVHDLNHAHIVYHHDAAPKKYGFTH
notes: recombinant in E. coli from pET-28a(+), +GSHM at N-terminus (left after tag cleavage, details in supplement); start MAMLYGKH (from primer); about 54 kDa from kcat/Vmax; dimer per cited work
In the case of B2, the Km [2] is reported as 20.02 ± 2.557 mM, the Vmax [2] is reported as 73.3 µmol/min/mg and the kcat [2] is reported as 65.9 ± 4.2 s⁻¹. It also gave a kcat/Km [2] of 3290 M⁻¹ s⁻¹.
